The values below come from patent publication US20220411492A1 (QILU PHARMACEUTICAL, published 2022).

Experiment [1] addresses murine CLDN18.2 (mCLDN18.2) (murine) (UniProt P56857). Briefly: FACS, HEK293-mCLDN18.2 cells. Background: A flow cytometer gives signals particle by particle.
Experiment [2] deals with T1, human Claudin 18.2 (hCLDN18.2) (human, UniProt P56856-2 1-261). Briefly: FACS, HEK293-hCLDN18.2 cells.
For experiment [3], the target named is T1, human Claudin 18.2 (hCLDN18.2). Nature of the experiment: FACS, PDX-hCLDN18.2 gastric cancer tumor tissue-derived cells.
Experiment [4] has the same target. Briefly: FACS, HEK293-hCLDN18.2 cells. This is another data set of the same source.
Experiment [5] deals with murine CLDN18.2 (mCLDN18.2) (murine) (UniProt P56857). Nature of the experiment: FACS, HEK293-mCLDN18.2 cells. This is another data set of the same source.
Experiment [6] concerns the target T1, human Claudin 18.2 (hCLDN18.2). Briefly: cell-based or functional assay.
Experiment [7] shares this target. Briefly: FACS, PDX-hCLDN18.2 gastric cancer tumor tissue-derived cells. This is another data set of the same source.
For experiment [8] the target is unchanged. Nature of the experiment: FACS, HEK293-hCLDN18.2 cells. This is another data set of the same source.
Experiment [9] has the same target. Briefly: cell-based or functional assay. The source holds these as a separate data set.
The target is the same in experiment [10]. Nature of the experiment: FACS, HEK293-hCLDN18.2 cells. On the procedure:
(§1) Using flow cytometry measurement, the mean fluorescence intensity (hereinafter referred to as MFI) for each concentration was calculated by the software, and then the half binding concentration (EC₅₀) and the mean maximum fluorescence intensity (Top MFI) were calculated by GraphPad software, and the results were shown in Table 11.

Experiment [11] shares this target. Briefly: cell-based or functional assay. This is another data set of the same source.
The target is the same in experiment [12]. Nature of the experiment: cell-based or functional assay. The source holds these as a separate data set.
Experiment [13] has the same target. Briefly: FACS, PDX-hCLDN18.2 gastric cancer tumor tissue-derived cells. On the procedure:
as §1

Changes are numbered by the printed parent chain. Names and notes keep the numbering of the source. Like-named read-outs stand apart in the source and are kept apart here.

The term EC50 denotes the concentration giving half of the maximal effect. Read a low EC50 as greater potency. Take “chimeric antibody ch-175D10 from patent CN103509110B”: the EC50 in experiment [1] turned out to be 1.01 nM; in [2], 0.881 nM; in experiment [3], 24.9 nM; in experiment [4], 0.156 µg/mL; in experiment [5], 0.136 µg/mL; in experiment [7], 63.9 nM. For the same molecule, the Mean maximum fluorescence intensity (Top MFI) was determined as 4190 MFI in [1]; 5450 MFI in experiment [2]; 5700 MFI in experiment [3]; 2840 MFI in [4]; 86400 MFI in experiment [5]; 7160 MFI in experiment [7]. In experiment [8], this molecule yielded a Mean maximum fluorescence intensity (Top MFI) of 26900 MFI. This molecule returned an ADCC EC50 in experiment [6] of 0.021 µg/mL. The molecule further came in with an ADCC Maximum lysis (%) in experiment [6] of 31.8%. The figures for the CDC EC50 in experiment [6] and in experiment [9] were 1.19 µg/mL and 1.55 µg/mL, respectively. In addition, the results for the CDC Maximum lysis (%) in [6] and in [9] were 87.4% and 87.8%, respectively.

B1: hu253C4-N31Q-1 (antibody, V domains shown)
VH: QVQLVQSGAEVKKPGASVKVSCKASGYIFTSYWIHWVRQAPGQGLEWMGRFYPGTGTAYYNENFEGRVTMTRDTSISTAYMELSRLRSDDTAVYYCAREGYGKGNSMDYWGQGTTVTVSS
VL: DIVMTQSPDSLAVSLGERATINCKSSQSLLQSGNQKNYLTWYQQKPGQPPKLLIYWASTRESGVPDRFSGSGSGTDFTLTISSLQAEDVAVYYCQNDYYFPFTFGGGTKLEIK
With B1, in experiment [1], the EC50 turned out to be 0.19 µg/mL and the Mean maximum fluorescence intensity (Top MFI) was found to be 65000 MFI. In experiment [3], this molecule showed an EC50 of 12 nM and a Mean maximum fluorescence intensity (Top MFI) of 16300 MFI. Moreover, in [8], the EC50 came to 0.216 nM and the Mean maximum fluorescence intensity (Top MFI) came to 23000 MFI. In experiment [9], this molecule displayed an ADCC EC50 of 0.024 µg/mL, an ADCC Maximum lysis (%) of 54.9%, a CDC EC50 of 0.175 µg/mL and a CDC Maximum lysis (%) of 96.3%.

B2: hu299B2-S32A-1 (antibody, V domains shown)
VH: B1 VH with S31N, F51I, T57N, A58T, N63K, E65T, I76T, A79V, R85S, D89E
VL: B1 VL with Q31N, S32A, D97A, F100Y, F102Y
notes: also called humanized antibody hu299B2-S32A
As to B2, in [10], the half-maximal effective concentration (EC50) is 0.407 nM and the “Mean maximum fluorescence intensity (Top MFI)” value turned out to be 29500 MFI. Also, in experiment [11], the “ADCC EC50” value was 0.022 µg/mL and the “ADCC Maximum lysis (%)” value is 57.9%. Further, in experiment [1], the EC50 worked out at 0.201 µg/mL and the Mean maximum fluorescence intensity (Top MFI) came to 88800 MFI. Besides, in [12], the “CDC EC50” value was determined as 0.125 µg/mL and the “CDC Maximum lysis (%)” value stood at 99.2%. Besides, in [13], a half-maximal effect (EC50) was put at 29.7 nM and the “Mean maximum fluorescence intensity (Top MFI)” value came to 25200 MFI.

B3: hu253C4-N31Q-2 (antibody, V domains shown)
VH: B1 VH
VL: B1 VL with A19V, I21L, I81V, L84V
In experiment [1], B3 yielded an EC50 of 0.026 µg/mL and a Mean maximum fluorescence intensity (Top MFI) of 36800 MFI. In experiment [3], this molecule came in with an EC50 of 11.4 nM and a Mean maximum fluorescence intensity (Top MFI) of 15600 MFI. In [8], this molecule displayed an EC50 of 0.361 nM and a Mean maximum fluorescence intensity (Top MFI) of 29000 MFI. For the same molecule, in experiment [9], the ADCC EC50 is 0.037 µg/mL, the ADCC Maximum lysis (%) was 58.8%, the CDC EC50 is 0.149 µg/mL and the CDC Maximum lysis (%) is 97.5%.

B4: hu253C4-N31Q-3 (antibody, V domains shown)
VH: B1 VH with A24T, M70L, R72A, A97T
VL: B1 VL
In experiment [1], B4 had an EC50 of 0.03 µg/mL and a Mean maximum fluorescence intensity (Top MFI) of 42100 MFI. In [3], this molecule returned an EC50 of 25.6 nM and a Mean maximum fluorescence intensity (Top MFI) of 21600 MFI. In addition, in experiment [8], the EC50 stood at 0.145 nM and the Mean maximum fluorescence intensity (Top MFI) amounted to 18800 MFI. In experiment [9], the ADCC EC50 amounted to 0.038 µg/mL, the ADCC Maximum lysis (%) was 70.3%, the CDC EC50 came to 0.128 µg/mL and the CDC Maximum lysis (%) was determined as 96.1%.

B5: hu299B2-S32A-2 (antibody, V domains shown)
VH: B1 VH with S31N, F51I, T57N, A58T, N63K, E65T, I76T, A79V, R85S, D89E
VL: B1 VL with I21M, Q31N, S32A, I54F, Y93H, D97A, F100Y, F102Y
notes: as for B2
As for B5, in experiment [10], the EC50 was 0.463 nM and the “Mean maximum fluorescence intensity (Top MFI)” value is 36700 MFI. In experiment [11], the “ADCC EC50” value came to 0.028 µg/mL and the “ADCC Maximum lysis (%)” value stood at 68.1%. In [1], this molecule returned a 50% effective concentration (EC50) of 0.111 µg/mL and a Mean maximum fluorescence intensity (Top MFI) of 90400 MFI. Moreover, in experiment [12], the “CDC EC50” value came out at 0.129 µg/mL and the “CDC Maximum lysis (%)” value came to 99.7%. Moreover, in experiment [13], the 50% effective concentration (EC50) came out at 24.6 nM and the “Mean maximum fluorescence intensity (Top MFI)” value was determined as 22900 MFI.

B6: hu299B2-S32A-4 (antibody, V domains shown)
VH: QVQLVQSGAEVKKPGASVKVSCKTSGYIFTNYWIHWVRQAPGQGLEWMGRIYPGTGNTYYNEKFTGRVTLTADTSTSTVYMELSSLRSEDTAVYYCSREGYGKGNSMDYWGQGTTVTVSS
VL: B1 VL with Q31N, S32A, D97A, F100Y, F102Y
notes: as for B2
With B6, in experiment [10], the EC50 turned out to be 0.318 nM and the “Mean maximum fluorescence intensity (Top MFI)” value turned out to be 31200 MFI. Further, in experiment [11], the “ADCC EC50” value stood at 0.024 µg/mL and the “ADCC Maximum lysis (%)” value came out at 63.2%. In addition, in [1], the concentration for a half-maximal effect (EC50) was found to be 0.281 µg/mL and the Mean maximum fluorescence intensity (Top MFI) turned out to be 84900 MFI. Further, in experiment [12], the “CDC EC50” value came out at 0.123 µg/mL and the “CDC Maximum lysis (%)” value came out at 99.9%. Further, in experiment [13], the EC50 was determined as 29.3 nM and the “Mean maximum fluorescence intensity (Top MFI)” value came out at 23000 MFI.

B7: hu299B2-S32A-3 (antibody, V domains shown)
VH: B6 VH with T24A, L70M, A72R, S97A
VL: B1 VL with A19V, I21M, Q31N, S32A, I54F, L84V, Y93H, D97A, F100Y, F102Y
notes: as for B2
As for B7, in experiment [10], the midpoint of the response, the EC50, lay at 0.399 nM and the “Mean maximum fluorescence intensity (Top MFI)” value is 40000 MFI. For the same molecule, in experiment [11], the “ADCC EC50” value came out at 0.022 µg/mL and the “ADCC Maximum lysis (%)” value was 69.1%. Besides, in [1], the 50% effective concentration (EC50) came to 0.342 µg/mL and the Mean maximum fluorescence intensity (Top MFI) turned out to be 103000 MFI. Further, in experiment [12], the “CDC EC50” value came to 0.092 µg/mL and the “CDC Maximum lysis (%)” value came out at 99.8%. Moreover, in experiment [13], the EC50 is 26.1 nM and the “Mean maximum fluorescence intensity (Top MFI)” value was 24300 MFI.
